Measured values reported in article doi:10.1101/2025.02.17.638590.

Biological target: free tubulin (bovine) (UniProt Q6B856)
Experiment: tubulin recruitment assay

UniProt Q6B856, sequence (Q6B856 whole entry, looked up): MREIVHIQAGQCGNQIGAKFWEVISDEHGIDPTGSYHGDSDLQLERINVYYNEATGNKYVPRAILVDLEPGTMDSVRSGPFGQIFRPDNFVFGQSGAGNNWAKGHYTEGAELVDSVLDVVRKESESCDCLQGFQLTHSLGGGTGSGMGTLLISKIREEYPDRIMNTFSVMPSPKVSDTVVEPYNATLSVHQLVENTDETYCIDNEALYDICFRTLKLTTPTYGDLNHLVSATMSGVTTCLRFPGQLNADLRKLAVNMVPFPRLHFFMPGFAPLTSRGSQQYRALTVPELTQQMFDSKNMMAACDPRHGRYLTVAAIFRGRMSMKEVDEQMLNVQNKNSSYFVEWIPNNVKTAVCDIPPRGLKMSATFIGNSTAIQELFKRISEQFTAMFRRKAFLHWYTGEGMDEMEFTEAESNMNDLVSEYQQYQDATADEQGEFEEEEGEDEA

| Substance | percent of stabilised microtubules with recruited free tubulin | percent of pre-polymerised microtubules with recruited free tubulin |
| --- | --- | --- |
| MAP6d1-Δ2-35 (from UniProt Q14BB9 1-191) (natural protein) | 9% |  |
| MAP6d1 (from UniProt Q14BB9 1-191) (natural protein) |  | 57% |
